# Measurements published in article PMC12326980.
# Assays:
# Assay in all cases: purified protein
# Details in all cases: 10 mM HEPES pH 7.5, 200 mM NaCl, 15 µM ZnSO4, 50 µg/mL BSA, 30°C
# [1] = tested on: CO/N=C(\C(=O)N[C@@H]1C(=O)N2C(C(=O)O)=C(COC(C)=O)CS[C@H]12)c1csc(N)n1
# [2] = tested on: CCN1CCN(C(=O)N[C@@H](C(=O)N[C@@H]2C(=O)N3[C@@H]2SC(C)(C)[C@@H]3C(=O)O)c2ccccc2)C(=O)C1=O
# [3] = tested on: CO/N=C(\C(=O)N[C@@H]1C(=O)N2C(C(=O)[O-])=C(C[N+]3(C)CCCC3)CS[C@H]12)c1csc(N)n1
# [4] = tested on: CC(C)(O/N=C(\C(=O)N[C@@H]1C(=O)N2C(C(=O)[O-])=C(C[n+]3ccccc3)CS[C@H]12)c1csc(N)n1)C(=O)O
# [5] = tested on: C[C@@H](O)[C@H]1C(=O)N2C(C(=O)O)=C(SCCN=CN)C[C@H]12
substance,measurement,setting,value
CIM-2 (Chryseobacterium indologenes),Km,[1],180 ± 20 µM
same,kcat,[1],820 ± 30 s⁻¹
same,kcat/Km,[1],4.7e+06 ± 700000 M⁻¹ s⁻¹
same,Km,[2],"2,400 ± 500 µM"
same,kcat,[2],48 ± 7 s⁻¹
same,kcat/Km,[2],20000 ± 7000 M⁻¹ s⁻¹
same,Km,[3],700 ± 200 µM
same,kcat,[3],28 ± 5 s⁻¹
same,kcat/Km,[3],40000 ± 20000 M⁻¹ s⁻¹
same,Km,[4],"2,000 ± 300 µM"
same,kcat,[4],380 ± 50 s⁻¹
same,kcat/Km,[4],180000 ± 50000 M⁻¹ s⁻¹
same,Km,[5],"2,300 ± 300 µM"
same,kcat,[5],2000 ± 200 s⁻¹
same,kcat/Km,[5],900000 ± 200000 M⁻¹ s⁻¹
CJO-1 (Chryseobacterium joostei),Km,[1],126 ± 4 µM
same,kcat,[1],528 ± 6 s⁻¹
same,kcat/Km,[1],4.2e+06 ± 200000 M⁻¹ s⁻¹
same,Km,[2],"1,900 ± 300 µM"
same,kcat,[2],30 ± 4 s⁻¹
same,kcat/Km,[2],16000 ± 5000 M⁻¹ s⁻¹
same,Km,[3],440 ± 60 µM
same,kcat,[3],19 ± 2 s⁻¹
same,kcat/Km,[3],43000 ± 9000 M⁻¹ s⁻¹
same,Km,[4],"1,000 ± 400 µM"
same,kcat,[4],110 ± 30 s⁻¹
same,kcat/Km,[4],100000 ± 60000 M⁻¹ s⁻¹
same,Km,[5],"2,700 ± 500 µM"
same,kcat,[5],280 ± 40 s⁻¹
same,kcat/Km,[5],100000 ± 30000 M⁻¹ s⁻¹
